From article PMC2829124

Substrate: CCCCCCCCCCCCCC(=O)SCCNC(=O)CCNC(=O)[C@H](O)C(C)(C)COP(=O)(O)OP(=O)(O)OC[C@H]1O[C@@H](n2cnc3c(N)ncnc32)[C@H](O)[C@@H]1OP(=O)(O)O
Assay: purified protein
Conditions: fatty acyl-CoA binding site

B1: N-Myristoyltransferase (LdNMT) (Leishmania donovani) (protein)
chain: MSRNPSNSDAAHAFWSTQPVPQTEDETEKIVFAGPMDEPKTVADIPEEPYPIASTFEWWTPNMEAADDIHAIYELLRDNYVEDDDSMFRFNYSEEFLQWALCPPSYIPDWHVAVRRKADKKLLAFIAGVPVTLRMGTPKYMKVKAQEKGQEEEAAKYDAPRHICEINFLCVHKQLREKRLAPILIKEVTRRVNRTNVWQAVYTAGVLLPTPYASGQYFHRSLNPEKLVEIRFSGIPAQYQKFQNPMAMLKRNYQLPNAPKNSGLREMKPSDVPQVRRILMNYLDNFDVGPVFSDAEISHYLLPRDGVVFTYVVENDKKVTDFFSFYRIPSTVIGNSNYNILNAAYVHYYAATSMPLHQLILDLLIVAHSRGFDVCNMVEILDNRSFVEQLKFGAGDGHLRYYFYNWAYPKIKPSQVALVML
  Km: 0.0175 ± 0.0029 µM
